Results from patent US20160200782A1 (MOERAE MATRIX, published 2016).

T1: LKB1(h) (human, UniProt Q15831 1-433, limits assumed)
T1 sequence (looked up): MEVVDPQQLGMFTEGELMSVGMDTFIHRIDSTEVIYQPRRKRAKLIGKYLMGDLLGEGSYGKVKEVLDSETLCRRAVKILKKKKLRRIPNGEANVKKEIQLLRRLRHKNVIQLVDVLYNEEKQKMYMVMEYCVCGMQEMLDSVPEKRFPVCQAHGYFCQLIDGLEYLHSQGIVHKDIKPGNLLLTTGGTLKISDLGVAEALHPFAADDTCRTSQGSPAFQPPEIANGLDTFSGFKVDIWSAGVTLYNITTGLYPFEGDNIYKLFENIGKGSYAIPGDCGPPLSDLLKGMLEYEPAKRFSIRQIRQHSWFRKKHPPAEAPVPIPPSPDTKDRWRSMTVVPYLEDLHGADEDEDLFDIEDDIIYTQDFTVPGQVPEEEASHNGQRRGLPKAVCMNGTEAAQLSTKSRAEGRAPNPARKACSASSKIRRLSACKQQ

T2: ARK5(h) (human, UniProt O60285 1-661, limits assumed)
T2 sequence (looked up): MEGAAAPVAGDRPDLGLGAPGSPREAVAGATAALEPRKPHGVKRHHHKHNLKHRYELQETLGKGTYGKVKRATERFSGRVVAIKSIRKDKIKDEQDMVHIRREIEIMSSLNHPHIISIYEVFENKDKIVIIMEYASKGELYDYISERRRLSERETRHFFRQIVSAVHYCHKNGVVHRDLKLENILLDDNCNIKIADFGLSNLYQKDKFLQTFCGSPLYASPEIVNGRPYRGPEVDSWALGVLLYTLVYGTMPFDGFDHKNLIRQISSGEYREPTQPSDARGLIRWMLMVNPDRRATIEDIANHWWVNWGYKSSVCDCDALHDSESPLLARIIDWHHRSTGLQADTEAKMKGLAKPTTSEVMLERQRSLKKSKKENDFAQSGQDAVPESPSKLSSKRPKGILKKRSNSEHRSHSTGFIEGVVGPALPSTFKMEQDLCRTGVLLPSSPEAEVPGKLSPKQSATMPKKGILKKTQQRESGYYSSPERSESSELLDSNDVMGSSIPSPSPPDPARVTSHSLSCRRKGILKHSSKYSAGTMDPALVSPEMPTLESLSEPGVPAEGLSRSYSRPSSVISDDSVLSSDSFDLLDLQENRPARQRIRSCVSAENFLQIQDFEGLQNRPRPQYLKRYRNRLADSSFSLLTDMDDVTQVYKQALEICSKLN

T3: BrSK2(h) (human, UniProt Q8IWQ3 1-736, limits assumed)
T3 sequence (looked up): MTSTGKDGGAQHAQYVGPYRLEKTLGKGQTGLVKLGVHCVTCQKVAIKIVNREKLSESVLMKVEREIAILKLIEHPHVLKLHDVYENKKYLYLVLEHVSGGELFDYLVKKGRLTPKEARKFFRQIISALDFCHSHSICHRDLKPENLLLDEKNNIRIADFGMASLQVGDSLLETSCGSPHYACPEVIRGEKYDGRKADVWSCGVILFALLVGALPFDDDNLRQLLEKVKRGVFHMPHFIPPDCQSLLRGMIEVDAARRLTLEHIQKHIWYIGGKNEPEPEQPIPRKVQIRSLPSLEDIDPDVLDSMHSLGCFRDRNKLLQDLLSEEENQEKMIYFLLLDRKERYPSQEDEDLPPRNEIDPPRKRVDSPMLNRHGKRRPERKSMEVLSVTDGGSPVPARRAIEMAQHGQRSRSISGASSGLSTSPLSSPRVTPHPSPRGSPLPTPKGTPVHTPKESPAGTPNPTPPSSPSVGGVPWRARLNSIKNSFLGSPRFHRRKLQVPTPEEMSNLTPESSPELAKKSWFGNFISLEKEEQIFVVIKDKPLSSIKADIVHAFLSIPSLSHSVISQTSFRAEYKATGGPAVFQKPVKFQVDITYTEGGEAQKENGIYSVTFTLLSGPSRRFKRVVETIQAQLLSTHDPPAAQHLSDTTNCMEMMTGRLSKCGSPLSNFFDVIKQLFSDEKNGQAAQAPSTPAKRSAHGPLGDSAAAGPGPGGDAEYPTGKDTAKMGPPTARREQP


How the values were obtained:
Experiment in all cases: cell-based or functional assay
HIPK3(h) = HIPK3(h) (human, UniProt Q9H422 161-562, limits assumed)
HIPK3(h), sequence (Q9H422 161-562 limits assumed): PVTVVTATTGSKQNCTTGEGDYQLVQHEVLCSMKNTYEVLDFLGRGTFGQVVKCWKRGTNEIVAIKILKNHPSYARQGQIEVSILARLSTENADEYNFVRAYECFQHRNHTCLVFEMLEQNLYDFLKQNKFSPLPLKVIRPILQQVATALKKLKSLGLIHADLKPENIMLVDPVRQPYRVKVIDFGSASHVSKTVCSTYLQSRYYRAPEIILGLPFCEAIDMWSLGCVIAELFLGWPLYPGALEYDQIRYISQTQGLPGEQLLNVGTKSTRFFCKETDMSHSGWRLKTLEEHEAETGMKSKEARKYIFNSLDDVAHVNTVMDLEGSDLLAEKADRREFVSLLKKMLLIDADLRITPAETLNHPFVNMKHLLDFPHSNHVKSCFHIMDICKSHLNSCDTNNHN

Lck(h) activated = Lck(h) activated (human, UniProt P06239 1-509, limits assumed)
Lck(h) activated, sequence (P06239 whole entry): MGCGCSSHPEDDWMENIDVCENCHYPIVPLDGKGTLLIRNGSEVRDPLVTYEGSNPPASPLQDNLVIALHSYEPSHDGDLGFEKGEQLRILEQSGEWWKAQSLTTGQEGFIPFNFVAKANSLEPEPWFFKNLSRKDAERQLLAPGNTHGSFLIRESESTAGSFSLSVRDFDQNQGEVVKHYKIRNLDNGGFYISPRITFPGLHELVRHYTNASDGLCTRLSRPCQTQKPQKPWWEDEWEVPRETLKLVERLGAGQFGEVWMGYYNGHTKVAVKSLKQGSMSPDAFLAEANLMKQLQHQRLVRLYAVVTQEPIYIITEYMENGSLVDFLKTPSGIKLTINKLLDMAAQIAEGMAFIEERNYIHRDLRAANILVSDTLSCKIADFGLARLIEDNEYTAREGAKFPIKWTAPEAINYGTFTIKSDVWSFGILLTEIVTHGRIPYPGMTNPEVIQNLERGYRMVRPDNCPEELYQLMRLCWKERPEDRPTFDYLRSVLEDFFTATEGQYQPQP

LKB1(h) = molecular target: T1, LKB1(h)
ARK5(h) = molecular target: T2, ARK5(h)
PASK(h) = PASK(h) (human, UniProt Q96RG2 879-1323, limits assumed)
PASK(h), sequence (Q96RG2 879-1323 limits assumed): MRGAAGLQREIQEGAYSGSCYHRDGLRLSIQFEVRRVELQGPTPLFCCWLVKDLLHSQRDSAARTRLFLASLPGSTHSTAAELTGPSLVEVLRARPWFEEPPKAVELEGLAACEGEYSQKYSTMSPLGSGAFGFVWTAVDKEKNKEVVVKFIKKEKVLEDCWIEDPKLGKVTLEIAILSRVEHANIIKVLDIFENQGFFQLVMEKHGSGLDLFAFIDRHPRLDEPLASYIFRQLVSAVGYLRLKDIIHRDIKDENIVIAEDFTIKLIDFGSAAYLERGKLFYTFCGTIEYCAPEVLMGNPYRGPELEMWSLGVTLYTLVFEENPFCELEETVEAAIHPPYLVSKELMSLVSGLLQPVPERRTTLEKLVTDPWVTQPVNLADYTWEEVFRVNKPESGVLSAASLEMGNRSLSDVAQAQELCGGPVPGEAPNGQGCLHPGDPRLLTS

TrkA(h) = TrkA(h) (human, UniProt P04629 441-796, limits assumed)
TrkA(h), sequence (P04629 441-796 limits assumed): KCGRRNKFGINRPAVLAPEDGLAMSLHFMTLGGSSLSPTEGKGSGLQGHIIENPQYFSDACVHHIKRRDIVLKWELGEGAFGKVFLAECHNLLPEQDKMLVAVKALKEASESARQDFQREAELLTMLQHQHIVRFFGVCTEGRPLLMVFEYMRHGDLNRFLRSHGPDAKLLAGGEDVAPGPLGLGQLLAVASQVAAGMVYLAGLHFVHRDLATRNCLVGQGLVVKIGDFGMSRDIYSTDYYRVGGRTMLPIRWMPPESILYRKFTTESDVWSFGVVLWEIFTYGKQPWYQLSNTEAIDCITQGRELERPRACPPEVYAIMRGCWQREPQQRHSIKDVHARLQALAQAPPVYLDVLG

BrSK2(h) = molecular target: T3, BrSK2(h)
WNK3(h) = WNK3(h) (human, UniProt Q9BYP7 1-434, limits assumed)
WNK3(h), sequence (Q9BYP7 1-434 limits assumed): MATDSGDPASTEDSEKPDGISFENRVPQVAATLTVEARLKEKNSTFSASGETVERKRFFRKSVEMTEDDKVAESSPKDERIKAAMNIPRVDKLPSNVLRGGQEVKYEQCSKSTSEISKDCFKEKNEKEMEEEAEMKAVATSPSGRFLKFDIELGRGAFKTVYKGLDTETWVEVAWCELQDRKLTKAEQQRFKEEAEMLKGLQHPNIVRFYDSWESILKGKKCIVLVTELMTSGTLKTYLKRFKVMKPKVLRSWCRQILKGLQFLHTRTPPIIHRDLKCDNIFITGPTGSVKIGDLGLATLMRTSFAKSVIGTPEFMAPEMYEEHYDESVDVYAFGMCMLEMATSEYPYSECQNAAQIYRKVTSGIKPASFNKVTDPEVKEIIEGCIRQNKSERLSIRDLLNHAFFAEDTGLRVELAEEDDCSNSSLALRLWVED

VRK2(h) = VRK2(h) (human, UniProt Q86Y07 1-508, limits assumed)
VRK2(h), sequence (Q86Y07 whole entry): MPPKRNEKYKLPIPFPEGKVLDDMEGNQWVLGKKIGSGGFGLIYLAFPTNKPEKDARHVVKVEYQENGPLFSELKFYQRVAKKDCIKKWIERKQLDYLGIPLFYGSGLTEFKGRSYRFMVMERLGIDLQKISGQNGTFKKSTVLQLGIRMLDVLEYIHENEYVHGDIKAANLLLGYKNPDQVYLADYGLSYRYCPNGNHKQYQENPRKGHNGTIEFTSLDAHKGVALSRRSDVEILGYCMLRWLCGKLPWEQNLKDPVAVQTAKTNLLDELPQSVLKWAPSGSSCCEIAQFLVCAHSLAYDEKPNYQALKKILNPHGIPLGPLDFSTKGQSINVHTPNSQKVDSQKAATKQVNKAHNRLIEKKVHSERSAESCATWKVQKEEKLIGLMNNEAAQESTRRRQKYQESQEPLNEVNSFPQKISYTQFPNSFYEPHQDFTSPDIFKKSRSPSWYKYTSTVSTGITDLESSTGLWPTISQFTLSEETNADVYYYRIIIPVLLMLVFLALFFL

CaMKIIβ(h) = CaMKIIβ(h) (human, UniProt Q13554 1-666, limits assumed)
cKit(D816H)(h) = cKit(D816H)(h) (human, UniProt P10721 544-976, limits assumed)
cKit(D816H)(h), sequence (P10721 544-976 D816H limits assumed): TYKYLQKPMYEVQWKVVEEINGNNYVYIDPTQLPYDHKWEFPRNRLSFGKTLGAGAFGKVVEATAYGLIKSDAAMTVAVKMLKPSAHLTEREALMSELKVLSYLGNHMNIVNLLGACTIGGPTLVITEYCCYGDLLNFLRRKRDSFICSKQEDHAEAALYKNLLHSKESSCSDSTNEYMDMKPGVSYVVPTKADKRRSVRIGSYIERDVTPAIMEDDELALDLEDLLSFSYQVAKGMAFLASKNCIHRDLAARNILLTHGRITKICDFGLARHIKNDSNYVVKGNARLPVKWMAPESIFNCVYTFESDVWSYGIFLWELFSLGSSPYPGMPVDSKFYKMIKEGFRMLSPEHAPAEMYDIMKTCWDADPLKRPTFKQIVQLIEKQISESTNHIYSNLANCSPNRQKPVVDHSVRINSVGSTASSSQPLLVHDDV

Ab1(H396P)(h) = Ab1(H396P)(h) (human, UniProt P00519 27-1130, limits assumed)
Ab1(H396P)(h), sequence (P00519 27-1130 H396P limits assumed): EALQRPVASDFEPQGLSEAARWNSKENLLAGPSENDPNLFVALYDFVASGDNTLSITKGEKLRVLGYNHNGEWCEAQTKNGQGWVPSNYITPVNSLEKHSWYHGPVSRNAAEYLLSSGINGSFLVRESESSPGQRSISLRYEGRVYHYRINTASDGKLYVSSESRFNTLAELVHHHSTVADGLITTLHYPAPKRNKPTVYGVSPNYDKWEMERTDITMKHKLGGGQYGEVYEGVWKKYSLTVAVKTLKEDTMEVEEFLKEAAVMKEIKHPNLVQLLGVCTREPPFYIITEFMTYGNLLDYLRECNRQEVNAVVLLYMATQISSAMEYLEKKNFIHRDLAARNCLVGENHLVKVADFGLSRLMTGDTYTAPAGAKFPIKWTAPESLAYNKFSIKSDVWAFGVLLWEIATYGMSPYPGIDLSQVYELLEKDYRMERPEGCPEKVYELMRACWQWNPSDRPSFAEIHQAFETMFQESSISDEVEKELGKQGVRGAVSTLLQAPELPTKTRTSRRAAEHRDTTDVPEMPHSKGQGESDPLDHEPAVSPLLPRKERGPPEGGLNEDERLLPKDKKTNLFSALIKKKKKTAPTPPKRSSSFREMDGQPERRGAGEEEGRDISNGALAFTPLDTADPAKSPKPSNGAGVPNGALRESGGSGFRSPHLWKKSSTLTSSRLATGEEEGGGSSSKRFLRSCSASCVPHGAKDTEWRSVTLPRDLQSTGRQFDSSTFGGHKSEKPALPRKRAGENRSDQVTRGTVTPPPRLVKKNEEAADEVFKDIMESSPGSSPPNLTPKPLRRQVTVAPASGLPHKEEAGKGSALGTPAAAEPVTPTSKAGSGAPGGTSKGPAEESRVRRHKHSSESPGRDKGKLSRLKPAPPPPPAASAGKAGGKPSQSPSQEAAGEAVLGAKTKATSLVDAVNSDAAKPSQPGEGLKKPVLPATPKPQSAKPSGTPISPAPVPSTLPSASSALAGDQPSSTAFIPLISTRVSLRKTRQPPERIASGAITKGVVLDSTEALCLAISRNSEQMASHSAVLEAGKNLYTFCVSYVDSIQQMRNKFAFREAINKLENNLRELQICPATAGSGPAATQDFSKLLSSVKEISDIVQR

FGFR3(h) = FGFR3(h) (human, UniProt P22607 397-806)
FGFR3(h), sequence (P22607 397-806 limits assumed): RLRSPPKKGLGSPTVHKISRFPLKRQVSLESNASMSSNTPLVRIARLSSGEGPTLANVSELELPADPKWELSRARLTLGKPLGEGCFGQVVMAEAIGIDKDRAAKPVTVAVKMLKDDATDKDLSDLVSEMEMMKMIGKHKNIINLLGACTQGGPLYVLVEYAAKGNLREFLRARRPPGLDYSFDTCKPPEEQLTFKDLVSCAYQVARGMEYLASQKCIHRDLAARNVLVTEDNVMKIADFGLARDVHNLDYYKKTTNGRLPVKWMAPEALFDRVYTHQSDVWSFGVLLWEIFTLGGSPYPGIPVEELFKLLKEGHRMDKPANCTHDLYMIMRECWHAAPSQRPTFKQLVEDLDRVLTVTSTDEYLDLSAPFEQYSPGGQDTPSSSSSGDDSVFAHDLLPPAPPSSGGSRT
Further: test concentration or dose not given here.

| Binder | % activity (HIPK3(h)) [%] | % activity (Lck(h) activated) [%] | % activity (LKB1(h)) [%] | % activity (ARK5(h)) [%] | % activity (PASK(h)) [%] | % activity (TrkA(h)) [%] | % activity (BrSK2(h)) [%] | % activity (WNK3(h)) [%] | % activity (VRK2(h)) [%] | % activity (CaMKIIβ(h)) [%] | % activity (cKit(D816H)(h)) [%] | % activity (Ab1(H396P)(h)) [%] | % activity (FGFR3(h)) [%] |
| --- | --- | --- | --- | --- | --- | --- | --- | --- | --- | --- | --- | --- | --- |
| KAFAKLAARLYRKALARQLGVAA [MMI-0400] | 105 | 216 | 89 | 69 | 28 | 17 | 86 | 74 | 185 | 11 | 143 | 105 | 0 |
| FAKLAARLYRKALARQLGVAA [MMI-0300] | 93 | 243 | 101 | 78 | 29 | 25 | 83 | 77 | 161 | 2 | 126 | 101 | 102 |
